Values belong to the binder of their own block, whether it stands above or below them. No end group written: not given here.
Experiments:
[1] = substrate: FPB antiserum (rabbit polyclonal antiserum to human fibrinopeptide B, R4097, bleed I3); assay: competitive ELISA; synthetic FPB in solution against FPB antiserum binding to FPB-coated wells
[2] = substrate: FPB antiserum (rabbit polyclonal antiserum to human fibrinopeptide B, R4097, bleed I3); assay: competitive ELISA; reference synthetic FPB
[3] = substrate: FPB antiserum (rabbit polyclonal antiserum to human fibrinopeptide B, R4097, bleed I3); assay: competitive ELISA; des-arg FPB in solution against FPB antiserum binding to FPB-coated wells

IC50 [1]: 6.7 nM
B1: synthetic human fibrinopeptide B (FPB) (peptide)
peptide: QGVNDNEEGFFSAR
modifications: also: N-terminal Gln or pyroglutamic acid not given here

cross-reactivity (IC50 of FPB divided by IC50 of des-arg FPB times 100) [2]: 75% | IC50 [3]: 8.9 nM
B2: synthetic des-arginine fibrinopeptide B (des-arg FPB) (peptide)
peptide: QGVNDNEEGFFSA
modifications: also: N-terminal Gln or pyroglutamic acid not given here

From patent US20040086947A1
